To fix the notation:
B1: IgG1-ROR2-A-HC3LC2-FEAR (antibody, V domains shown)
VH: EVQLLESGGGLVQPGGSLRLSCTVSGFSLSSYSMSWVRQAPGKGLEWIGVIYVNSKTWYANWAKGRFTISKTSTTVYLQMNSLRAEDTATYYCARGDAGYTTNSWLWGQGTLVTVSS
VL: AFELTQSPSSLSASVGDRVTITCQASESIDNYLSWYQQKPGKAPKLLIYQAFKLASGVPSRFRGSGSGTDFTLTISSLQSEDFATYYCQSYSGISTTAFGGGTEVVIK
notes: Humanized variant
B2: IgG1-ROR2-A-HC7LC2-FEAR (antibody, V domains shown)
VH: EVQLLESGGGLVQPGGSLRLSCAASGFSLSSYSMSWVRQAPGKGLEWIGVIYVNSKTWYADSVKGRFTISKDNSKNTVYLQMNSLRAEDTATYYCARGDAGYTTNSWLWGQGTLVTVSS
VL: AFELTQSPSSLSASVGDRVTITCQASESIDNYLSWYQQKPGKAPKLLIYQAFKLASGVPSRFRGSGSGTDFTLTISSLQSEDFATYYCQSYSGISTTAFGGGTEVVIK
notes: Humanized variant
B3: IgG1-ROR2-A-HC3LC1-FEAR (antibody, V domains shown)
VH: EVQLLESGGGLVQPGGSLRLSCTVSGFSLSSYSMSWVRQAPGKGLEWIGVIYVNSKTWYANWAKGRFTISKTSTTVYLQMNSLRAEDTATYYCARGDAGYTTNSWLWGQGTLVTVSS
VL: AFELTQSPSSLSASVGDRVTITCQASESIDNYCSWYQQKPGKAPKLLIYQAFKLASGVPSRFRGSGSGTDFTLTISSLQSEDFATYYCQSYSGISTTAFGGGTEVVIK
notes: Humanized variant
B4: IgG1-ROR2-A-HC5LC1-FEAR (antibody, V domains shown)
VH: EVQLLESGGGLVQPGGSLRLSCAASGFSLSSYSMSWVRQAPGKGLEWIGVIYVNSKTWYANWAKGRFTISKDNSKNTVYLQMNSLRAEDTATYYCARGDAGYTTNSWLWGQGTLVTVSS
VL: AFELTQSPSSLSASVGDRVTITCQASESIDNYCSWYQQKPGKAPKLLIYQAFKLASGVPSRFRGSGSGTDFTLTISSLQSEDFATYYCQSYSGISTTAFGGGTEVVIK
notes: Humanized variant
B5: IgG1-ROR2-A-HC4LC1-FEAR (antibody, V domains shown)
VH: EVQLLESGGGLVQPGGSLRLSCTVSGFSLSSYSMSWVRQAPGKGLEWIGVIYVNSKTWYANWAKGRFTISKDNSKNTVYLQMNSLRAEDTATYYCARGDAGYTTNSWLWGQGTLVTVSS
VL: AFELTQSPSSLSASVGDRVTITCQASESIDNYCSWYQQKPGKAPKLLIYQAFKLASGVPSRFRGSGSGTDFTLTISSLQSEDFATYYCQSYSGISTTAFGGGTEVVIK
notes: Humanized variant
B6: IgG1-ROR2-A-HC4LC4-FEAR (antibody)
heavy: EVQLLESGGGLVQPGGSLRLSCTVSGFSLSSYSMSWVRQAPGKGLEWIGVIYVNSKTWYANWAKGRFTISKDNSKNTVYLQMNSLRAEDTATYYCARGDAGYTTNSWLWGQGTLVTVSSASTKGPSVFPLAPSSKSTSGGTAALGCLVKDYFPEPVTVSWNSGALTSGVHTFPAVLQSSGLYSLSSVVTVPSSSLGTQTYICNVNHKPSNTKVDKRVEPKSCDKTHTCPPCPAPEFEGGPSVFLFPPKPKDTLMISRTPEVTCVVVAVSHEDPEVKFNWYVDGVEVHNAKTKPREEQYNSTYRVVSVLTVLHQDWLNGKEYKCKVSNKALPAPIEKTISKAKGQPREPQVYTLPPSREEMTKNQVSLTCLVKGFYPSDIAVEWESNGQPENNYKTTPPVLDSDGSFFLYSRLTVDKSRWQQGNVFSCSVMHEALHNHYTQKSLSLSPGK
VL: DIQLTQSPSSLSASVGDRVTITCQASESIDNYLSWYQQKPGKAPKLLIYQAFKLASGVPSRFRGSGSGTDFTLTISSLQPEDFATYYCQSYSGISTTAFGGGTKVEIK
notes: Humanized variant
B7: IgG1-ROR2-A-HC3LC3-FEAR (antibody)
heavy: EVQLLESGGGLVQPGGSLRLSCTVSGFSLSSYSMSWVRQAPGKGLEWIGVIYVNSKTWYANWAKGRFTISKTSTTVYLQMNSLRAEDTATYYCARGDAGYTTNSWLWGQGTLVTVSSASTKGPSVFPLAPSSKSTSGGTAALGCLVKDYFPEPVTVSWNSGALTSGVHTFPAVLQSSGLYSLSSVVTVPSSSLGTQTYICNVNHKPSNTKVDKRVEPKSCDKTHTCPPCPAPEFEGGPSVFLFPPKPKDTLMISRTPEVTCVVVAVSHEDPEVKFNWYVDGVEVHNAKTKPREEQYNSTYRVVSVLTVLHQDWLNGKEYKCKVSNKALPAPIEKTISKAKGQPREPQVYTLPPSREEMTKNQVSLTCLVKGFYPSDIAVEWESNGQPENNYKTTPPVLDSDGSFFLYSRLTVDKSRWQQGNVFSCSVMHEALHNHYTQKSLSLSPGK
VL: AFELTQSPSSLSASVGDRVTITCQASESIDNYLSWYQQKPGKAPKLLIYQAFKLASGVPSRFRGSGSGTDFTLTISSLQPEDFATYYCQSYSGISTTAFGGGTKVEIK
notes: Humanized variant
B8: IgG1-ROR2-A-HC5LC2-FEAR (antibody, V domains shown)
VH: EVQLLESGGGLVQPGGSLRLSCAASGFSLSSYSMSWVRQAPGKGLEWIGVIYVNSKTWYANWAKGRFTISKDNSKNTVYLQMNSLRAEDTATYYCARGDAGYTTNSWLWGQGTLVTVSS
VL: AFELTQSPSSLSASVGDRVTITCQASESIDNYLSWYQQKPGKAPKLLIYQAFKLASGVPSRFRGSGSGTDFTLTISSLQSEDFATYYCQSYSGISTTAFGGGTEVVIK
notes: Humanized variant
B9: IgG1-ROR2-A-HC3LC4-FEAR (antibody)
heavy: EVQLLESGGGLVQPGGSLRLSCTVSGFSLSSYSMSWVRQAPGKGLEWIGVIYVNSKTWYANWAKGRFTISKTSTTVYLQMNSLRAEDTATYYCARGDAGYTTNSWLWGQGTLVTVSSASTKGPSVFPLAPSSKSTSGGTAALGCLVKDYFPEPVTVSWNSGALTSGVHTFPAVLQSSGLYSLSSVVTVPSSSLGTQTYICNVNHKPSNTKVDKRVEPKSCDKTHTCPPCPAPEFEGGPSVFLFPPKPKDTLMISRTPEVTCVVVAVSHEDPEVKFNWYVDGVEVHNAKTKPREEQYNSTYRVVSVLTVLHQDWLNGKEYKCKVSNKALPAPIEKTISKAKGQPREPQVYTLPPSREEMTKNQVSLTCLVKGFYPSDIAVEWESNGQPENNYKTTPPVLDSDGSFFLYSRLTVDKSRWQQGNVFSCSVMHEALHNHYTQKSLSLSPGK
VL: DIQLTQSPSSLSASVGDRVTITCQASESIDNYLSWYQQKPGKAPKLLIYQAFKLASGVPSRFRGSGSGTDFTLTISSLQPEDFATYYCQSYSGISTTAFGGGTKVEIK
notes: Humanized variant
B10: IgG1-ROR2-A-HC4LC2-FEAR (antibody, V domains shown)
VH: EVQLLESGGGLVQPGGSLRLSCTVSGFSLSSYSMSWVRQAPGKGLEWIGVIYVNSKTWYANWAKGRFTISKDNSKNTVYLQMNSLRAEDTATYYCARGDAGYTTNSWLWGQGTLVTVSS
VL: AFELTQSPSSLSASVGDRVTITCQASESIDNYLSWYQQKPGKAPKLLIYQAFKLASGVPSRFRGSGSGTDFTLTISSLQSEDFATYYCQSYSGISTTAFGGGTEVVIK
notes: Humanized variant

For orientation: Kd means the constant that tells how readily two partners part at equilibrium. Read a low Kd as tighter binding. Broadly, the koff is the rate constant with which the complex falls apart. Low values mean slow dissociation, high ones fast dissociation. The kon is a measure of how fast the partners come together. Read a high kon as fast association.

For this assay, the target named is T1, his-tagged ROR2 extracellular domain (ROR2-ECD, G&P Biosciences, cat. no. FCL0192) (human, UniProt Q01974 34-403).
T1 construct: Bought protein; also called human ROR2-ECD; recombinant human ROR2-ECD; not shown: his tag
T1 sequence (Q01974 34-403): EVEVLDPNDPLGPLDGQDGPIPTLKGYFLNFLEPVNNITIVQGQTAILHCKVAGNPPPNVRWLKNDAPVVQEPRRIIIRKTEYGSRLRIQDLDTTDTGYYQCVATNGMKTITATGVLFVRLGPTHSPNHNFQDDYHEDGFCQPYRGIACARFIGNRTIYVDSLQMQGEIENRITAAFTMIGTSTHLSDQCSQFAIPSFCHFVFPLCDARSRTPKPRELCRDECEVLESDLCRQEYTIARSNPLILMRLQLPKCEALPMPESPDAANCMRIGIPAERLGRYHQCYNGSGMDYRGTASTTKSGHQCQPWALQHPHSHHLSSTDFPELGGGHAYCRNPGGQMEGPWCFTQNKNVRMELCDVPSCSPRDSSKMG
As to the kind of experiment: BLI (Octet), antibody on anti-human IgG Fc sensor, ROR2-ECD 1.56-100 nM as analyte.
In turn, B1 came in with a Kd of 1.8 nM, an off-rate constant (koff) of 0.001 s⁻¹ and an on-rate (kon) of 560000 M⁻¹ s⁻¹.

Turning to B2, the Kd came out at 4.7 nM, the koff stood at 0.0025 s⁻¹ and the kon was 540000 M⁻¹ s⁻¹.

In turn, B3 showed a dissociation constant Kd of 1.6 nM, a koff of 0.00088 s⁻¹ and a kon of 550000 M⁻¹ s⁻¹.

B4 yielded a Kd of 1.6 nM, a koff of 0.00088 s⁻¹ and a kon of 540000 M⁻¹ s⁻¹.

For B5, binding was characterised by a dissociation constant (Kd) of 2.1 nM, the dissociation rate constant (koff) was determined as 0.0011 s⁻¹ and the kon worked out at 540000 M⁻¹ s⁻¹.

B6 showed a dissociation constant (Kd) of 1.5 nM, a dissociation rate constant (koff) of 0.00092 s⁻¹ and an association rate constant (kon) of 620000 M⁻¹ s⁻¹.

As for B7, binding was characterised by a dissociation constant (Kd) of 1.8 nM, the koff turned out to be 0.001 s⁻¹ and the kon came out at 550000 M⁻¹ s⁻¹.

On to B8, for which the equilibrium dissociation constant (Kd) is 1.8 nM, the koff stood at 0.00097 s⁻¹ and the on-rate constant (kon) came to 550000 M⁻¹ s⁻¹.

With B9, the dissociation constant Kd turned out to be 1.5 nM, the koff worked out at 0.00087 s⁻¹ and the association rate constant (kon) was determined as 580000 M⁻¹ s⁻¹.

Turning to B10, the Kd stood at 1.6 nM, the off-rate (koff) is 0.00095 s⁻¹ and the kon amounted to 590000 M⁻¹ s⁻¹.

(Values after US20230365714A1 (published 2023).)
